Experimental data from paper PMC10286367.

B1: mouse full-length p65-HA [mouse] / glycogen synthase kinase 3β (Gsk3β) [mouse (endogenous in hippocampal tissue)] (parent)
chain 1: MDDLFPLIFPSEPAQASGPYVEIIEQPKQRGMRFRYKCEGRSAGSIPGERSTDTTKTHPTIKINGYTGPGTVRISLVTKDPPHRPHPHELVGKDCRDGYYEADLCPDRSIHSFQNLGIQCVKKRDLEQAISQRIQTNNNPFHVPIEEQRGDYDLNAVRLCFQVTVRDPAGRPLLLTPVLSHPIFDNRAPNTAELKICRVNRNSGSCLGGDEIFLLCDKVQKEDIEVYFTGPGWEARGSFSQADVHRQVAIVFRTPPYADPSLQAPVRVSMQLRRPSDRELSEPMEFQYLPDTDDRHRIEEKRKRTYETFKSIMKKSPFNGPTEPRPPTRRIAVPTRNSTSVPKPAPQPYTFPASLSTINFDEFSPMLLPSGQISNQALALAPSSAPVLAQTMVPSSAMVPLAQPPAPAPVLTPGPPQSLSAPVPKSTQAGEGTLSEALLHLQFDADEDLGALLGNSTDPGVFTDLASVDNSEFQQLLNQGVSMSHSTAEPMLMEYPEAITRLVTGSQRPPDPAPTPLGTSGLPNGLSGDEDFSSIADMDFSALLSQISS
chain 2: MSGRPRTTSFAESCKPVQQPSAFGSMKVSRDKDGSKVTTVVATPGQGPDRPQEVSYTDTKVIGNGSFGVVYQAKLCDSGELVAIKKVLQDKRFKNRELQIMRKLDHCNIVRLRYFFYSSGEKKDEVYLNLVLDYVPETVYRVARHYSRAKQTLPVIYVKLYMYQLFRSLAYIHSFGICHRDIKPQNLLLDPDTAVLKLCDFGSAKQLVRGEPNVSYICSRYYRAPELIFGATDYTSSIDVWSAGCVLAELLLGQPIFPGDSGVDQLVEIIKVLGTPTREQIREMNPNYTEFKFPQIKAHPWTKVFRPRTPPEAIALCSRLLEYTPTARLTPLEACAHSFFDELRDPNVKLPNGRDTPALFNFTTQELSSNPPLATILIPPHARIQAAASPPANATAASDTNAGDRGQTNNAASASASNST

Tests used:
[1] = variants of: B1; experiment: co-IP with Gsk3β followed by WB, band quantification; conditions: with glycogen synthase kinase 3β (Gsk3β) [mouse (endogenous in hippocampal tissue)]; p65-HA variant co-expressed with Ogt-Flag and Gsk3β; n = 3 independent experiments; parent: 1; read off a plot
[2] = variants of: B1; experiment: co-IP with HA (p65) followed by WB, band quantification; conditions: with glycogen synthase kinase 3β (Gsk3β) [mouse (endogenous in hippocampal tissue)]; p65-HA variant co-expressed with Ogt-Flag and Gsk3β; n = 3 independent experiments; parent: 1; read off a plot

| response (relative protein level (HA / Gsk3β)) [1] | response (relative protein level (Gsk3β / HA)) [2] | Variant |
| --- | --- | --- |
| 2.4 | 2.1 | chain 1 S384A |
| 1 | 1.1 | chain 1 S396A |

Further lines, the variant ahead of its results:

| Variant | response (relative protein level (HA / Gsk3β)) [1] | response (relative protein level (Gsk3β / HA)) [2] |
| --- | --- | --- |
| chain 1 S370A | 1 | 1.1 |
| chain 1 S374A | 1.1 | 1 |
